Data from paper PMC6820788, “Structural insights of human mitofusin-2 into mitochondrial fusion and CMT2A onset” (Nature Communications, 2019).
One block for each molecule: values may come before it.

Assays:
[1] = target: T1, MFN1IM (Homo sapiens, UniProt Q8IWA4, DEL365-694); test: ITC; format: binding
T1 construct: gene MFN1; internally truncated (residues 365-694 removed, G domain + HD1); E. coli; His6 cut by PreScission
T1 sequence (Q8IWA4 1-364): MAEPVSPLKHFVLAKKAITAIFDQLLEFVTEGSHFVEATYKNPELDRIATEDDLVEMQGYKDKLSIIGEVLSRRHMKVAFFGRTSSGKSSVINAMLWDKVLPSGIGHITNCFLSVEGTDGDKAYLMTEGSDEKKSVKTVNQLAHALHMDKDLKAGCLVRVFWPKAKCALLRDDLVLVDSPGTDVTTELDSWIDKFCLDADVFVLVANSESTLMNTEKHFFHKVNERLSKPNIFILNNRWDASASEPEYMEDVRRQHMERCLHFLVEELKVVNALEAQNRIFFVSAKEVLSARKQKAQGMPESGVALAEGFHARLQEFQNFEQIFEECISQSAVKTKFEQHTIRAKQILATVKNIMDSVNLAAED
T1 sequence (Q8IWA4 695-741): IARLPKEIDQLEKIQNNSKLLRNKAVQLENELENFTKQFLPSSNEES

[2] = target: T2, MFN2IM (Homo sapiens, UniProt O95140, DEL401-705); test: ITC; format: binding
T2 construct: gene MFN2; deletion of residues 1-21 and 401-705 (G domain + HD1); E. coli; N-terminal His6 cut by PreScission
T2 sequence (O95140 22-400): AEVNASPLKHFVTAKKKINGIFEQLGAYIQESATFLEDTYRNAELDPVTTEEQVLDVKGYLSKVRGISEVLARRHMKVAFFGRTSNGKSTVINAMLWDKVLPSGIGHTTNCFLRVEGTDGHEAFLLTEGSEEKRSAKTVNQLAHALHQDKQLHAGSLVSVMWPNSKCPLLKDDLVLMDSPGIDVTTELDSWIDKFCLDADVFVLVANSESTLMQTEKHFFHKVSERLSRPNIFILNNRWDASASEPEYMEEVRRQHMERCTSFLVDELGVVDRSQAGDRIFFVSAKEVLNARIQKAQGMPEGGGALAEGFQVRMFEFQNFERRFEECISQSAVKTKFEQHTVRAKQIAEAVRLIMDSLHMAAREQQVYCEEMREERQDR
T2 sequence (O95140 706-757): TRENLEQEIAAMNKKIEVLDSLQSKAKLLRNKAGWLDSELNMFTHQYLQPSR

[3] = target: the molecule itself; test: SEC-RALS; analytical gel filtration (Superdex 200 10/300) coupled to right-angle light scattering; 50 μM protein incubated with 500 μM GTP or GDP∙BeF3− for 2 h at room temperature; 20 mM HEPES pH 7.5, 150 mM KCl, 5 mM MgCl2, 1 mM DTT
[4] = target: T3, MBP-fused MFN2IM (human, UniProt O95140 22-757, deletions of residues 1–21 and 401–705); test: native gel or EMSA; blue native PAGE at 4 °C; MBP-tagged MFN1IM/MFN2IM mixed with 10 μM partner and tenfold GDP∙BeF3−, 2 h at room temperature; Coomassie stain; settings: both partners purified
T3 construct: human mitofusin-2 (MFN2) with residues 1-21 and 401-705 deleted (MFN2IM); also called MBP-tagged MFN2IM; wild-type MFN2IM (native PAGE)
T3 sequence (looked up): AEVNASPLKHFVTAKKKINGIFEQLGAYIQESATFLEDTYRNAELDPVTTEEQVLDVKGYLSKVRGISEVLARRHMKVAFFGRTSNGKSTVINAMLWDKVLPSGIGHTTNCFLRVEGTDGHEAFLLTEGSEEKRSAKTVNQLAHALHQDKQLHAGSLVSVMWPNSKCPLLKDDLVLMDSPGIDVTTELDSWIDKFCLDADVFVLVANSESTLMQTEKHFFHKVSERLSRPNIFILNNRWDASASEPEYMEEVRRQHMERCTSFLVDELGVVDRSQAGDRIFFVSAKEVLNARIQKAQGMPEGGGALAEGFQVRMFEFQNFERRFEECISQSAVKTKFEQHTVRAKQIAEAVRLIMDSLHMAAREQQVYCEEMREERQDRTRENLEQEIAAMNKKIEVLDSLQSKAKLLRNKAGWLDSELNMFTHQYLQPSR

Kd [1]: 83 ± 5.34 µM
Kd [2]: 3.3 ± 0.52 µM
Molecule: Nc1nc2c(ncn2[C@@H]2O[C@H](COP(=O)(O)OP(=O)(O)OP(O)(O)=S)[C@@H](O)[C@H]2O)c(=O)[nH]1 [GTPγS]

Kd [1]: 217 ± 23.8 µM
Kd [2]: 14.4 ± 0.63 µM
Molecule: Nc1nc2c(ncn2[C@@H]2O[C@H](COP(=O)(O)OP(=O)(O)O)[C@@H](O)[C@H]2O)c(=O)[nH]1 [GDP]

B1: MFN2IM (modified human MFN2 construct with deletions of residues 1–21 and 401–705) (domain or fragment, UniProt O95140 22-757, looked up)
chain: AEVNASPLKHFVTAKKKINGIFEQLGAYIQESATFLEDTYRNAELDPVTTEEQVLDVKGYLSKVRGISEVLARRHMKVAFFGRTSNGKSTVINAMLWDKVLPSGIGHTTNCFLRVEGTDGHEAFLLTEGSEEKRSAKTVNQLAHALHQDKQLHAGSLVSVMWPNSKCPLLKDDLVLMDSPGIDVTTELDSWIDKFCLDADVFVLVANSESTLMQTEKHFFHKVSERLSRPNIFILNNRWDASASEPEYMEEVRRQHMERCTSFLVDELGVVDRSQAGDRIFFVSAKEVLNARIQKAQGMPEGGGALAEGFQVRMFEFQNFERRFEECISQSAVKTKFEQHTVRAKQIAEAVRLIMDSLHMAAREQQVYCEEMREERQDRTRENLEQEIAAMNKKIEVLDSLQSKAKLLRNKAGWLDSELNMFTHQYLQPSR
notes: human mitofusin-2 (MFN2) with residues 1-21 and 401-705 deleted (MFN2IM); Theoretical molecular mass 52.6 kDa; also called truncated human MFN2; wild-type MFN2IM; source: E. coli Rosetta (DE3), purified (Ni-NTA, His6-tag removed with PreScission protease, second Ni-NTA, gel filtration); not shown: His6, N-terminal, cleaved
stoichiometry N [3]: 2

B2: MFN2IM P251L (CMT2A-related mutant) (domain or fragment, human, UniProt O95140 22-757, looked up)
chain: AEVNASPLKHFVTAKKKINGIFEQLGAYIQESATFLEDTYRNAELDPVTTEEQVLDVKGYLSKVRGISEVLARRHMKVAFFGRTSNGKSTVINAMLWDKVLPSGIGHTTNCFLRVEGTDGHEAFLLTEGSEEKRSAKTVNQLAHALHQDKQLHAGSLVSVMWPNSKCPLLKDDLVLMDSPGIDVTTELDSWIDKFCLDADVFVLVANSESTLMQTEKHFFHKVSERLSRLNIFILNNRWDASASEPEYMEEVRRQHMERCTSFLVDELGVVDRSQAGDRIFFVSAKEVLNARIQKAQGMPEGGGALAEGFQVRMFEFQNFERRFEECISQSAVKTKFEQHTVRAKQIAEAVRLIMDSLHMAAREQQVYCEEMREERQDRTRENLEQEIAAMNKKIEVLDSLQSKAKLLRNKAGWLDSELNMFTHQYLQPSR
notes: human mitofusin-2 (MFN2) with residues 1-21 and 401-705 deleted (MFN2IM), CMT2A-related point mutant; source: E. coli Rosetta (DE3), purified; not shown: His6, N-terminal, cleaved
binding result [3]: binds

B3: MFN2IM L248V (CMT2A-related mutant) (domain or fragment, human, UniProt O95140 22-757, looked up)
chain: AEVNASPLKHFVTAKKKINGIFEQLGAYIQESATFLEDTYRNAELDPVTTEEQVLDVKGYLSKVRGISEVLARRHMKVAFFGRTSNGKSTVINAMLWDKVLPSGIGHTTNCFLRVEGTDGHEAFLLTEGSEEKRSAKTVNQLAHALHQDKQLHAGSLVSVMWPNSKCPLLKDDLVLMDSPGIDVTTELDSWIDKFCLDADVFVLVANSESTLMQTEKHFFHKVSERVSRPNIFILNNRWDASASEPEYMEEVRRQHMERCTSFLVDELGVVDRSQAGDRIFFVSAKEVLNARIQKAQGMPEGGGALAEGFQVRMFEFQNFERRFEECISQSAVKTKFEQHTVRAKQIAEAVRLIMDSLHMAAREQQVYCEEMREERQDRTRENLEQEIAAMNKKIEVLDSLQSKAKLLRNKAGWLDSELNMFTHQYLQPSR
notes: as for B2
binding result [3]: binds

B4: MFN2IM R364W (CMT2A-related mutant) (domain or fragment, human, UniProt O95140 22-757, looked up)
chain: AEVNASPLKHFVTAKKKINGIFEQLGAYIQESATFLEDTYRNAELDPVTTEEQVLDVKGYLSKVRGISEVLARRHMKVAFFGRTSNGKSTVINAMLWDKVLPSGIGHTTNCFLRVEGTDGHEAFLLTEGSEEKRSAKTVNQLAHALHQDKQLHAGSLVSVMWPNSKCPLLKDDLVLMDSPGIDVTTELDSWIDKFCLDADVFVLVANSESTLMQTEKHFFHKVSERLSRPNIFILNNRWDASASEPEYMEEVRRQHMERCTSFLVDELGVVDRSQAGDRIFFVSAKEVLNARIQKAQGMPEGGGALAEGFQVRMFEFQNFERRFEECISQSAVKTKFEQHTVWAKQIAEAVRLIMDSLHMAAREQQVYCEEMREERQDRTRENLEQEIAAMNKKIEVLDSLQSKAKLLRNKAGWLDSELNMFTHQYLQPSR
notes: as for B2
binding result [3]: binds

B5: MFN2IM R364P (CMT2A-related mutant) (domain or fragment, human, UniProt O95140 22-757, looked up)
chain: AEVNASPLKHFVTAKKKINGIFEQLGAYIQESATFLEDTYRNAELDPVTTEEQVLDVKGYLSKVRGISEVLARRHMKVAFFGRTSNGKSTVINAMLWDKVLPSGIGHTTNCFLRVEGTDGHEAFLLTEGSEEKRSAKTVNQLAHALHQDKQLHAGSLVSVMWPNSKCPLLKDDLVLMDSPGIDVTTELDSWIDKFCLDADVFVLVANSESTLMQTEKHFFHKVSERLSRPNIFILNNRWDASASEPEYMEEVRRQHMERCTSFLVDELGVVDRSQAGDRIFFVSAKEVLNARIQKAQGMPEGGGALAEGFQVRMFEFQNFERRFEECISQSAVKTKFEQHTVPAKQIAEAVRLIMDSLHMAAREQQVYCEEMREERQDRTRENLEQEIAAMNKKIEVLDSLQSKAKLLRNKAGWLDSELNMFTHQYLQPSR
notes: as for B2
binding result [3]: binds

B6: MFN2IM R94Q (CMT2A-related mutant) (domain or fragment, human, UniProt O95140 22-757, looked up)
chain: AEVNASPLKHFVTAKKKINGIFEQLGAYIQESATFLEDTYRNAELDPVTTEEQVLDVKGYLSKVRGISEVLAQRHMKVAFFGRTSNGKSTVINAMLWDKVLPSGIGHTTNCFLRVEGTDGHEAFLLTEGSEEKRSAKTVNQLAHALHQDKQLHAGSLVSVMWPNSKCPLLKDDLVLMDSPGIDVTTELDSWIDKFCLDADVFVLVANSESTLMQTEKHFFHKVSERLSRPNIFILNNRWDASASEPEYMEEVRRQHMERCTSFLVDELGVVDRSQAGDRIFFVSAKEVLNARIQKAQGMPEGGGALAEGFQVRMFEFQNFERRFEECISQSAVKTKFEQHTVRAKQIAEAVRLIMDSLHMAAREQQVYCEEMREERQDRTRENLEQEIAAMNKKIEVLDSLQSKAKLLRNKAGWLDSELNMFTHQYLQPSR
notes: as for B2
binding result [3]: binds

binding result [4]: binds
B7: MFN2IM R94W (CMT2A-related mutant) (domain or fragment, human, UniProt O95140 22-757, looked up)
chain: AEVNASPLKHFVTAKKKINGIFEQLGAYIQESATFLEDTYRNAELDPVTTEEQVLDVKGYLSKVRGISEVLAWRHMKVAFFGRTSNGKSTVINAMLWDKVLPSGIGHTTNCFLRVEGTDGHEAFLLTEGSEEKRSAKTVNQLAHALHQDKQLHAGSLVSVMWPNSKCPLLKDDLVLMDSPGIDVTTELDSWIDKFCLDADVFVLVANSESTLMQTEKHFFHKVSERLSRPNIFILNNRWDASASEPEYMEEVRRQHMERCTSFLVDELGVVDRSQAGDRIFFVSAKEVLNARIQKAQGMPEGGGALAEGFQVRMFEFQNFERRFEECISQSAVKTKFEQHTVRAKQIAEAVRLIMDSLHMAAREQQVYCEEMREERQDRTRENLEQEIAAMNKKIEVLDSLQSKAKLLRNKAGWLDSELNMFTHQYLQPSR
notes: as for B2
